# Where no end group is shown, it is not given here.
# T1: recombinant KDM5C (UniProt P41229 1-765)
# T1 chain: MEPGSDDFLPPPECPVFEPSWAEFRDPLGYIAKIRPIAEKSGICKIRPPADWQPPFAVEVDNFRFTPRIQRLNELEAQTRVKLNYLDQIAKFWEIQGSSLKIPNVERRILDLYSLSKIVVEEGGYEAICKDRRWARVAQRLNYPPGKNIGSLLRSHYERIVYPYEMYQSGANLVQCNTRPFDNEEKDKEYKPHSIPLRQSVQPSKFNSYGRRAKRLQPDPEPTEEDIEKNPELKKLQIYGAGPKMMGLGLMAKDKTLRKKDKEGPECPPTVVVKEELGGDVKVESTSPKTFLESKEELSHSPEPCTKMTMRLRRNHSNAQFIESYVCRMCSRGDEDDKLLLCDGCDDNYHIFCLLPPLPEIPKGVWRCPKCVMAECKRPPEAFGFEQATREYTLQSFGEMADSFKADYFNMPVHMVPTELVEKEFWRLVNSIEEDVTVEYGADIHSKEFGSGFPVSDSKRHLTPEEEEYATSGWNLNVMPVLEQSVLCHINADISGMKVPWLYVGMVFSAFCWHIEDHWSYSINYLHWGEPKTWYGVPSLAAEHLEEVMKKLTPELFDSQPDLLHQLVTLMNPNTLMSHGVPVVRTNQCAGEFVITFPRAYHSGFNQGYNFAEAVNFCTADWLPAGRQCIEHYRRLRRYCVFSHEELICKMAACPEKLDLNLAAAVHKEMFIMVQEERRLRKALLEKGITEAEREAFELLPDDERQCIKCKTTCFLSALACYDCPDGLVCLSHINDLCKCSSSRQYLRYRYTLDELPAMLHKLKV
# Experiments:
# Experiment in all cases: inhibition of recombinant KDM5 demethylase activity (H3K4me3 peptide); legend calls it IC50
# [1] = biological target: KDM5B
# [2] = biological target: KDM5A
# [3] = biological target: T1, recombinant KDM5C
binder,measurement,setting,value
"TEDSKTHHH (also: fluorescein label in FP assay, end not given here) [EP4]",EC50,[1],377 nM
same,EC50,[2],422 nM
same,EC50,[3],0.97 nM

# From patent publication US20220184221A1 (published 2022)
